What was measured:
[1] = target: V5-tagged HNF4α (hepatocyte nuclear factor 4alpha), full length (amino acids 1–474), P41235-1; test: Co-IP (IP-Flag) and Western blotting, V5 band quantified; conditions: HEK293T cells, transfected for 48 h; parent: 1
[2] = target: Flag-tagged TRIM47 (tripartite motif 47), full length (amino acids 1–638), Q96LD4-1; test: as above; conditions: HEK293T cells, co-transfected for 48 h; parent: 1
Flag-tagged TRIM47 (tripartite motif 47), full length (amino acids 1–638), Q96LD4-1, sequence (Q96LD4 whole entry, the tested form may be a part): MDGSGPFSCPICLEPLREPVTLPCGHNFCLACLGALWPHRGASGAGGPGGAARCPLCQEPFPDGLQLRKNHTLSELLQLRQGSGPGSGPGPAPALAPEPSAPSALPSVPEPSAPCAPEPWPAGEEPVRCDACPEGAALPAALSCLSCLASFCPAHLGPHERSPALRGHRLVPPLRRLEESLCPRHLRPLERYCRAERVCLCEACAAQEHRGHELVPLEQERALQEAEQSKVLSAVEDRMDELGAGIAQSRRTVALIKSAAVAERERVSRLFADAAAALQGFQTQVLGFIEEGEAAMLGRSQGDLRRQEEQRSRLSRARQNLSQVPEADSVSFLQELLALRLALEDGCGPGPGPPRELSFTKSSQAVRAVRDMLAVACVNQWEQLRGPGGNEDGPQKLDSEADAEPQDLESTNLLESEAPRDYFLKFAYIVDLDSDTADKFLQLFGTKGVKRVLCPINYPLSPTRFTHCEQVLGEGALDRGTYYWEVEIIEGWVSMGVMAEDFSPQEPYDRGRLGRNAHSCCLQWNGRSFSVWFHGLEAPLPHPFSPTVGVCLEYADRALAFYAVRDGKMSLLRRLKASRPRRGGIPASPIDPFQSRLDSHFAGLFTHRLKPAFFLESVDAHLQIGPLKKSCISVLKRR

Row | Substance | ratio to parent [1] [Fold] | ratio to parent [2] [Fold]
1 | Flag-tagged TRIM47 (tripartite motif 47), full length (amino acids 1–638) (from UniProt Q96LD4-1) K534A | 0.79 | 
2 | Flag-tagged TRIM47 (tripartite motif 47), full length (amino acids 1–638) (from UniProt Q96LD4-1) K534A; K600A | 0.49 | 
3 | Flag-tagged TRIM47 (tripartite motif 47), full length (amino acids 1–638) (from UniProt Q96LD4-1) K600A | 0.83 | 
4 | V5-tagged HNF4α (hepatocyte nuclear factor 4alpha), full length (amino acids 1–474) (from UniProt P41235-1) E353A |  | 0.38
5 | V5-tagged HNF4α (hepatocyte nuclear factor 4alpha), full length (amino acids 1–474) (from UniProt P41235-1) K342A |  | 0.56
6 | V5-tagged HNF4α (hepatocyte nuclear factor 4alpha), full length (amino acids 1–474) (from UniProt P41235-1) K342A; W349A; E353A |  | 0.23
7 | V5-tagged HNF4α (hepatocyte nuclear factor 4alpha), full length (amino acids 1–474) (from UniProt P41235-1) W349A |  | 0.49

— PMC12891897, “Blocking TRIM47-mediated HNF4α degradation suppresses hepatocellular carcinoma progression” (Acta Pharmaceutica Sinica. B, 2025)
